According to PMC12475165 (Nature Communications, 2025):

Biological target: T1, EDC4 (endogenous, EBOV-infected cells) (UniProt Q6P2E9 1-1401)
T1 sequence: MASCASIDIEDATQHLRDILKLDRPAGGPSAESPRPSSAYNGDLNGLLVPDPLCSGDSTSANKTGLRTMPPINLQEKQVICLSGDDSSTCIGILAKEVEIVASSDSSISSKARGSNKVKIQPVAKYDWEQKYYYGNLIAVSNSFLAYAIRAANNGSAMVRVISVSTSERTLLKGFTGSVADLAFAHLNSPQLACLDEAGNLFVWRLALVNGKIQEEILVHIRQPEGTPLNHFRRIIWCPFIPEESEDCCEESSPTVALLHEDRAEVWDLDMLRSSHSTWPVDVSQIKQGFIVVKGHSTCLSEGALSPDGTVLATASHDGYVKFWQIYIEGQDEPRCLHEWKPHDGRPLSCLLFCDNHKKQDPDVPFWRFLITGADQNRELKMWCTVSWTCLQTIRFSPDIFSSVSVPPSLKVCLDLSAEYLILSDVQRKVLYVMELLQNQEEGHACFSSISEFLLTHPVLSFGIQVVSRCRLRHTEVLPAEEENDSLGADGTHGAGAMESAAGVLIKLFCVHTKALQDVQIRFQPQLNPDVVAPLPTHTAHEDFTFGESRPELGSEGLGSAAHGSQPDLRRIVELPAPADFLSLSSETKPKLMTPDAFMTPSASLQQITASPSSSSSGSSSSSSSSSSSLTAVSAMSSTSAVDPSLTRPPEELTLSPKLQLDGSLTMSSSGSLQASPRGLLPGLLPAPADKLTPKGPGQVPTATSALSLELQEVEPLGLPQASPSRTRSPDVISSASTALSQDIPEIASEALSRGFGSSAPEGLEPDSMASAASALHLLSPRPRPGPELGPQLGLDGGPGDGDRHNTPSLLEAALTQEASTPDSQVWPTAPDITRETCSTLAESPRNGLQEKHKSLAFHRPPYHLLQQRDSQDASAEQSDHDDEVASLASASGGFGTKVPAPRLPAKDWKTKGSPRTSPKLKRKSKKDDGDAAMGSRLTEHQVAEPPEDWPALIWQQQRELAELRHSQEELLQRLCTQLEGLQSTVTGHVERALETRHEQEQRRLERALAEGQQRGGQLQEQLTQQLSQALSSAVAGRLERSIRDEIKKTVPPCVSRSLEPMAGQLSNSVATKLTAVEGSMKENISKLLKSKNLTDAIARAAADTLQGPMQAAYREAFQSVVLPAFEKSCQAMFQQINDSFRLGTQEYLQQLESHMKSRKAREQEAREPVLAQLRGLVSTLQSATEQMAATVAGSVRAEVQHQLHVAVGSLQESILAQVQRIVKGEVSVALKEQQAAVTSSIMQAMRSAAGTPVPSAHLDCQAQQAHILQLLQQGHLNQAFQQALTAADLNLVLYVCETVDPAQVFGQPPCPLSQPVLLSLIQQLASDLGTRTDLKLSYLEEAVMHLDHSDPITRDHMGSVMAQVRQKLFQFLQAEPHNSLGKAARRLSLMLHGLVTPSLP
Assay: proximity ligation
Conditions: partners not purified

B1: VP35 made by EBOV in infected cells (natural protein)
chain: MTTRTKGRGHTAATTQNDRMPGPELSGWISEQLMTGRIPVSDIFCDIENNPGLCYASQMQQTKPNPKTRNSQTQTDPICNHSFEEVVQTLASLATVVQQQTIASESLEQRITSLENGLKPVYDMAKTISSLNRVCAEMVAKYDLLVMTTGRATATAAATEAYWAEHGQPPPGPSLYEESAIRGKIESRDETVPQSVREAFNNLNSTTSLTEENFGKPDISAKDLRNIMYDHLPGFGTAFHQLVQVICKLGKDSNSLDIIHAEFQASLAEGDSPQCALIQITKRVPIFQDAAPPVIHIRSRGDIPRACQKSLRPVPPSPKIDRGWVCVFQLQDGKTLGLKI
PLA puncta per cell, fold over uninfected cells: 6 fold
